Data taken from the supplement of paper PMC9170038.

System: MS2 coat protein
Assay: apparent KD of MS2 coat protein; designed switch direction (-1 OFF switch, 1 ON switch): 1; higher = weaker reporter binding
How it was run: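 Each step of the titration lasted 0.8–1.5 h at the lowest concentration and 10–20 min at the highest. The protein, SNAP-549-labelled MS2 coat protein, went from 0.7 or 1.5 nM doubling to 3 µM over RNA switches transcribed on Illumina chips by stalled E. coli RNA polymerase. Normalised cluster fluorescence was curve-fitted, and the per-design median over clusters is given as apparent KD.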

[1] = input ligand: microRNA oligo, concentration not stated
[2] = Eterna round: R95, input ligand: FMN 200 uM
[3] = Eterna round: R95, input ligand: microRNA oligo, concentration not stated
[4] = Eterna round: R95, input ligand: none

Sequence | apparent KD of MS2 coat protein [1] [nM] | apparent KD of MS2 coat protein [2] [nM] | apparent KD of MS2 coat protein [3] [nM] | apparent KD of MS2 coat protein [4] [nM] | apparent KD of MS2 coat protein (input ligand: FMN 200 uM) [nM] | apparent KD of MS2 coat protein (input ligand: none) [nM]
AUUAAACAUGAGGAUCACCCAUGUCAACAAAGUCGAGGAUAUGGGCAUAUUAUCUAAUAACCAGAAGGCGAAUAAU [salish99_ss1_r3_085] (Eterna round: R96, puzzle: Same State 1) | 177 | – | – | – | – | –
AUUAAACAUGAGGAUCACCCAUGUCAACAAAGUCGAGGAUAUGGGCAUAUUAUCUAAUAACCAGAAGGCGAAUAAU [salish99_ss1_r3_085] (puzzle: Same State 1) | – | 43.8 | 194 | 210 | – | –
AUUACUAGCAUAGGAUAUCAUGCGAAAAUUGCGUGAGAAGGGUGGACGCUGUCAUUCACGGAAGACAUGAGGAUCACCCAUGUC [SameState NG1 #74] (Eterna round: R96, puzzle: Same State NG 1) | 68.5 | – | – | – | 142 | 94
AUUAGUAAUGCAGGAUAUGAUUAACAUGAGGAUCACCCAUGUGGUGUUGUGAGUAAGGAGAGUGAUCAGAAGGGCAUUUUUUUU [JMF's solution 28] (Eterna round: R96, puzzle: Same State NG 2) | 411 | – | – | – | 979 | 444
AUUAUACAUGAGGAUCACCCAUGUAAUUAAUCUAGUAAGAUCUAGGAUAUCAGCUCGUUUAGAGCUGAGAAGGAGAUCACAUGU [SSNG3/20-D3] (Eterna round: R96, puzzle: Same State NG 3) | 38 | – | – | – | – | –
AUUAUACAUGAGGAUCACCCAUGUAAUUAAUUAAUUAAGAUCUAGGAUAUCAGCUCGAAUAGAGCUGAGAAGGAGAUCACAUGU [SSNG3/20-C1] (Eterna round: R96, puzzle: Same State NG 3) | 24.2 | – | – | – | – | –
AUUAUACAUGAGGAUCACCCAUGUCAACAAAGUCGAGGAUAUGGGCAAAUAAAAUAAGAACCAGAAGGCGAAUAAU [salish99_ss1_r3_069] (Eterna round: R96, puzzle: Same State 1) | 189 | – | – | – | 69.2 | 293
AUUAUACAUGAGGAUCACCCAUGUCAACAAAGUCGAGGAUAUGGGCAAAUAAAAUAAGAACCAGAAGGCGAAUAAU [salish99_ss1_r3_069] (puzzle: Same State 1) | – | 51.3 | 155 | 259 | – | –
AUUAUACAUGAGGAUCACCCAUGUCAAUGUAGUCGAGGAUAUGGGCAGCUGUGAGGCGUACUAGAAGGCGAAGAGA [Mat - Same State 1 - Mod of JL - D9] (puzzle: Same State 1) | – | 59.9 | 192 | 222 | – | –
AUUAUUAAUGCAGGAUAUGAUUAACAUGAGGAUCACCCAUGUGGUGUUGUGAGUAAGGAGAGUGAUCAGAAGGGCAGUUUUUUU [JMF's solution 8] (Eterna round: R96, puzzle: Same State NG 2) | 227 | – | – | – | 614 | 262
AUUAUUAAUGCAGGAUAUGAUUAACAUGAGGAUCACCCAUGUGGUGUUGUGAGUAAGGAGAGUGAUCAGAAGGGCAUUUCUUUU [JMF's solution 11] (Eterna round: R96, puzzle: Same State NG 2) | 241 | – | – | – | 468 | 373
AUUAUUAAUGCAGGAUAUGAUUAACAUGAGGAUCACCCAUGUGGUGUUGUGAGUAAGGAGAGUGAUCAGAAGGGCAUUUUUUUC [JMF's solution 20] (Eterna round: R96, puzzle: Same State NG 2) | 369 | – | – | – | 672 | 399
AUUAUUAGUGCAGGAUAUGAUUAACAUGAGGAUCACCCAUGUGGUGUUGUGAGUAAGGAGAGUGAUCAGAAGGGCAUUUUUUUU [JMF's solution 21] (Eterna round: R96, puzzle: Same State NG 2) | 333 | – | – | – | 659 | 406
AUUAUUUCUGCAGGAUAUGAUUAACAUGAGGAUCACCCAUGUGGUGUUGUGAGUAAGGAGAGUGAUCAGAAGGGCAUUUUUUUU [JMF's solution 62] (Eterna round: R96, puzzle: Same State NG 2) | 211 | – | – | – | 630 | 313
AUUGCUAGCACAGGAUAUCAUGCGAAAAUUGCGUGAGAAGGGUGUACUCUGUCAUUGCCGGAGGACAUGAGGAUCACCCAUGUC [SameState NG1 #82] (Eterna round: R96, puzzle: Same State NG 1) | 33.6 | – | – | – | 218 | 37.5
AUUUAACAAGCUUUUUGCUCGUCUUAUAAACAUGAGGAUCACCCAUGUAAUAGCGUGAGAGUAAAUUAAUAAAUAAU [JMF 83] (puzzle: Sensor for hsa-mir-208a) | – | 14.5 | 44.7 | 13.5 | – | –
AUUUAACAAGCUUUUUGCUCGUCUUAUAAACAUGAGGAUCACCCAUGUAAUAGCGUGAGAGUAAUUAUUUAAAUAAU [JMF 94] (puzzle: Sensor for hsa-mir-208a) | – | 16.1 | 37.5 | 14.7 | – | –
AUUUCUAGCACAGGAUAUCAUGCGAAAAUUGCGUGAGAAGGGUGGACGCUGUCAUUCACGGAAGACAUGAGGAUCACCCAUGUC [SameState NG1 #76] (Eterna round: R96, puzzle: Same State NG 1) | 53.4 | – | – | – | 48 | 102
AUUUUUAAUGCAGGAUAUGAUUAACAUGAGGAUCACCCAUGUGGUGUUGUGAGUAAGGAGAGUGAUCAGAAGGGCAGUUUUUUU [JMF's solution 79] (Eterna round: R96, puzzle: Same State NG 2) | 315 | – | – | – | 543 | 499
AUUUUUAAUGCAGGAUAUGAUUAACAUGAGGAUCACCCAUGUGGUGUUGUGAGUAAGGAGAGUGAUCAGAAGGGCAUAUUUUUU [JMF's solution 80] (Eterna round: R96, puzzle: Same State NG 2) | 443 | – | – | – | 1170 | 863
AUUUUUAAUGCAGGAUAUGAUUAACAUGAGGAUCACCCAUGUGGUGUUGUGAGUAAGGAGAGUGAUCAGAAGGGCAUUUUGUUU [JMF's solution 83] (Eterna round: R96, puzzle: Same State NG 2) | 400 | – | – | – | 747 | 687
AUUUUUCAUGCAGGAUAUGAUUAACAUGAGGAUCACCCAUGUGGUGUUGUGAGUAAGGAGAGUGAUCAGAAGGGCAUUUUUUUU [JMF's solution 94] (Eterna round: R96, puzzle: Same State NG 2) | 342 | – | – | – | 837 | 503
CAAGCUUGGGUCGUCCCGCUCGUCUACAAACAUGAGGAUCACCCAUGUAAAAUCUAAAAUUCAAAUCUAUCUCUAAA [Getienre] (puzzle: Sensor for hsa-mir-208a) | – | 515 | 20.9 | 563 | – | –
CAAGCUUGGGUCGUCCCGCUCGUCUACAAACAUGAGGAUCACCCAUGUAUGCUCUUCGCAUCAAUUCUAUCUCUUGG [Quxeteor] (puzzle: Sensor for hsa-mir-208a) | – | 51.5 | 51.3 | 54.1 | – | –
CAGCACUGUCGAGAGGAUAUGCGGUGAUGGACAUGAGGAUCACCCAUGUUAGCGACAGCAUCACGGCAGAAGGCUCUACUGCUGC [Soteed Omei mod 32] (puzzle: Same State 2) | – | – | 12.3 | – | – | –
CAGUGCUGUCGAGAGGAUAUGCGGUGAUGGACAUGAGGAUCACCCAUGUUAGCGACAGCAUCACGGCAGAAGGCUCUACCCACUG [Soteed Omei mod 45] (puzzle: Same State 2) | – | – | 16.7 | – | – | –
CCAAUGUACAAUUUAGAUCUACAUGAGGAUCACCCAUGUACAGAGGAUAUCAGCUCGUGUAGAGCUGAGAAGGCUGAAUUAAUU [SSNG3/3-A4] (Eterna round: R96, puzzle: Same State NG 3) | 117 | – | – | – | 117 | 179
CCAGCUACUCACAUGAGGAUCACCCAUGUCUAGGAUAUAGUAGAGGAUAUUGGCGGAUGGAAGACCGAGAAGGCUACCUCCUGA [Eternabot solution 49] (Eterna round: R96, puzzle: Same State NG 3) | 14.4 | – | – | – | 17.9 | 18.3
CCAGGACAUGAGGAUCACCCAUGUGCUUAAUGUGGAGAAUCUCAGGAUAUCAUGAGGAUUACCCAUGAGAAGGGAGAUCCGAGG (Eterna round: R96, puzzle: Same State NG 3) | 300 | – | – | – | 437 | 483
